Consider one molecule from paper PMC9354549, “SARS-CoV-2 Nucleocapsid Protein Has DNA-Melting and Strand-Annealing Activities With Different Properties From SARS-CoV-2 Nsp13”.

For series [1], the target named is SARS-CoV-2 nucleocapsid protein (CoV-2 N) (SARS-CoV-2 (2019-nCoV), UniProt P0DTC9 1-419). In words: fluorescence anisotropy; 300 mM NaCl; 5 nM DNA; Kd was fitted but its value is only in Figure 7A; Fluorescence anisotropy, 50 mM Tris-HCl pH 7.0 with 300 mM NaCl (N) or 20 mM NaCl (Nsp13); 5 min equilibration, second reading after 10 min; temperature not stated. Particulars: protein: recombinant; chain copies: 2; label: 3'-FAM (fluorescein); single strand, 43 nt. (In fluorescence polarisation assays a small probe gives low polarisation when free and higher when bound to something large.)

The target of series [2] is SARS-CoV-2 nonstructural protein 13 (CoV-2 Nsp13) (SARS-CoV-2, UniProt P0DTD1 5325-5925). In words: fluorescence anisotropy; Fluorescence anisotropy, 50 mM Tris-HCl pH 7.0 with 300 mM NaCl ([…]) or 20 mM NaCl ([…]; temperature not stated. As to conditions: protein: recombinant; tags: 6xHis-SUMO, removed with SUMO protease; label: 3'-FAM (fluorescein); single strand, 43 nt.

B1: S43 (ssDNA)
DNA: CTGTAGGAATGTGAAATAAAAACGATGTTTTATTTACATTGTA
For the molecule B1, the binding result in series [1] and in series [2] was “binds” each time.
